From the Immune Epitope Database (IEDB) come the findings set out here.

What is called IC50 is the concentration that gives 50% inhibition.

Some targets named below: HLA-B*35:01; HLA-B*44:03; HLA-B*07:02; HLA-A*02:01; HLA-B*57:01; HLA-B*53:01.
Common to all, as to assay: IEDB peptide-MHC binding, purified MHC/competitive/radioactivity; ≥ and ≤ were set here for values at or beyond the usual limits of such assays
Settings in all cases: source organism: Bordetella pertussis

A value given as a limit tells only on which side of the number the result lay.

On to AAAEVAGAL, for which the IC50 with HLA-B*35:01 was determined as 69.9 µM; with HLA-B*44:03 it was 49.4 µM; in the assay with HLA-B*07:02 it was 6.11 µM.
Regarding AGKSLKKKN, in the assay with HLA-A*02:01, the IC50 is at least 78.1 µM.
APPGAGFIY: the IC50 in the assay with HLA-B*35:01 came out at 16.5 µM.
Turning to ECSGKQDCP, the IC50 in the assay with HLA-B*07:02 came out at 69.6 µM.
In the case of EHRMQEAVE, the concentration for half-maximal inhibition (IC50) with HLA-A*02:01 was at least 78.1 µM.
As for ESAEGRKIF, the figures for the IC50 with HLA-B*57:01 and in the assay with HLA-B*44:03 were at least 70.4 µM and 36.7 µM, respectively.
For the sequence FETYALTGI, the IC50 with HLA-B*44:03 was determined as 35.8 µM.
As for IPFQRALRL, in the assay with HLA-B*53:01, the IC50 was 2.3 µM.
For the sequence IVIPPKALF, in the assay with HLA-B*57:01, the IC50 came to 45.6 µM.
MEYFKTPLP: the IC50 with HLA-B*44:03 turned out to be 28.1 µM.
With VAAAADLAL, the IC50 with HLA-B*53:01 was 21.7 µM.
VPFCFGKDL: the IC50 with HLA-B*07:02 was 12.1 µM.
As to VTMRYLASY, the figures for the IC50 in the assay with HLA-B*57:01 and with HLA-B*35:01 were 0.0142 µM and 35.4 µM, respectively.
Consider YDTGDLIAY, for which the IC50 with HLA-B*35:01 was 69.9 µM.
